From article PMC10877577 (ACS Chemical Biology, 2024)
Entries after “also recorded” stand apart in the source; their conditions may differ. Each block holds one molecule with its values, some of them ahead of it. Bridges are numbered along the chain shown (N, C = ends). Where no end group is shown, it is not given here.

How the values were obtained:
sdAbs = settings: read-out: affinity of sdAb for hapten; cited from earlier work
[1] = system: MinoCAR-transduced PBMC against SupT1-EGFR+ target cells; format: cell-based; settings: 0.1, 1 and 10 μM, 24 h, 1:2 E/T
Method: Transduced CAR T cells were determined by staining for the transduction marker RQR8 and normalized by the addition of nontransduced T cells. Effector cells were cocultured with 5.0 × 10^4 number of target cells (SupT1-NT, SupT1-EGFR+, SKOV3-mKate) to achieve the desired effector cell to target ratio. […] Cocultures were incubated for 24–72 h at 37 °C and 5% CO2. After incubation, plates were centrifuged at 400g for 5 min, and the supernatant containing secreted cytokines was collected for cytokine analysis. Cells were stained with anti-hCD34-APC and anti-CD3-PeCy7 to differentiate effector T cells and target cells. Cells were washed with 300 μL o PBS and stained with SYTOX Blue Dead Cell Stain dye. The percentage of target cell survival was measured relative to the number of live target cells cocultured with nonspecific CAR T cells or nontransduced PBMCs.

[2] = target: anti-minocycline single-domain antibody clone 1 (aMinoC1 sdAb) (alpaca); test: SPR; Biacore T200; aMino sdAbs immobilized on a CM5 chip (4300-4600 RU); 1x HBS-EP+; analyte from 2.5 uM in 2-fold serial dilutions, 150 s at 30 uL/min, 150 s dissociation; 1:1 Langmuir model
[3] = system: HEK-293T transduced with the aMinoC1 transmembrane receptor; test: Flow cytometry of peptide-muIgG2a Fc binding to cells with aMinoC1 transmembrane receptor; format: cell-based, human; settings: GWARA, HWAQA, PWAYS, QWAMM; increasing minocycline; caffeine 100 μM
Method: Flow cytometry was performed using the MACSQuant Analyzer 10 or MACSQuant X (Miltenyi Biotec). All flow cytometry data was analyzed using FlowJo v.7.6.2 software (Tree Star Inc., Ashland, OR). Cell staining was carried out by incubation with PBS containing the recommended concentration of antibodies at RT for 30 min. PBS washes were carried out between antibody staining. Cell viability was determined using viability dye SYTOX Blue Dead Cell Stain (ThermoFisher) prior to flow cytometric analysis. Cells were first gated for singlet population identified by FSC-H and FSC-A. Next, live cells were identified using a viability dye, followed by gating for target cell populations. The antibodies used in the study are as follows: CD3 PECy7 (Biolegend, 317334), Human CD34 APC-conjugated antibody (R&D system, FAB7227A), Human CD34 Alexa Fluor 488-conjugated antibody (R&D system, FAB7227G), Streptavidin PE (Biolegend, 405204), APC antihuman EGFR antibody (Biolegend, 352905), Alexa Fluor 488 antihuman EGFR antibody (Biolegend, 352907), PE anti-HA.11 Epitope Tag antibody (Biolegend, 901517), Anti-M13-HRP (Sino Biologics, 1197 mm05T-H), Anti-Myc-HRP (Genscript, A00863), and SYTOX Blue Dead Cell Stain (ThermoFisher, S10274).

aMinoC1 sdAb = test: SPR of peptide-Fc or small-molecule analytes against aMinoC1; format: binding, alpaca; settings: molecules closely related to minocycline
Method: (§1) Binding assays were carried out using 1x HBS-EP+ running buffer. Various concentrations (2.5 μM with 2-fold serial dilutions) of the analyte were injected for 150 s at 30 μL/min with 150 s dissociation time. Glycine-HCl (pH 2.0) was used as the regeneration buffer for the sensor chips. For the rechallenge experiment, aMinoC1 was immobilized on a CM5 sensor chip and CX7C peptide-Fc conjugates were loaded at 100 nM and injected as the analyte for 150 s at 30 μL/min. Following the injection of peptide-Fc, a small molecule at 1 μM was injected for 300 s at 30 μL/min, using dual injection function on a Biacore 8k instrument, to dissociate the peptide-Fc from the aMinoC1-peptide complex. The system was then washed using HBS-P^+ buffer for 300 s at 30 μL/min prior to rechallenge with peptide-Fc. The cycle was repeated three times following a final dissociation step of 300 s. For the alanine scanning experiments, the anti-minocycline antibody (sdAb-muIgG2a-Fc fusion) was captured on a Protein A series S sensor chip, to a density of 3000 RU. […] Glycine-HCl (pH 1.5) was used as the regeneration buffer. In each case, flow cell 1 was used for reference subtraction, and a “0 concentration” sensogram of buffer alone was used as a double reference subtraction to factor for drift. Data analysis was carried out using Biacore T200 Evaluation Software, version 3.0, and Biacore Insight evaluation software. […]

aMinoC1-peptide complex = test: SPR rechallenge: small-molecule-driven dissociation of peptide-Fc from immobilized aMinoC1; format: binding; settings: peptide-Fc 100 nM, small molecule 1 μM
Method: Binding assays were carried out using 1x HBS-EP+ running buffer. Various concentrations (2.5 μM with 2-fold serial dilutions) of the analyte were injected for 150 s at 30 μL/min with 150 s dissociation time. Glycine-HCl (pH 2.0) was used as the regeneration buffer for the sensor chips. For the rechallenge experiment, aMinoC1 was immobilized on a CM5 sensor chip and CX7C peptide-Fc conjugates were loaded at 100 nM and injected as the analyte for 150 s at 30 μL/min. Following the injection of peptide-Fc, a small molecule at 1 μM was injected for 300 s at 30 μL/min, using dual injection function on a Biacore 8k instrument, to dissociate the peptide-Fc from the aMinoC1-peptide complex. The system was then washed using HBS-P^+ buffer for 300 s at 30 μL/min prior to rechallenge with peptide-Fc. The cycle was repeated three times following a final dissociation step of 300 s. For the alanine scanning experiments, the anti-minocycline antibody (sdAb-muIgG2a-Fc fusion) was captured on a Protein A series S sensor chip, to a density of 3000 RU. […] Glycine-HCl (pH 1.5) was used as the regeneration buffer. In each case, flow cell 1 was used for reference subtraction, and a “0 concentration” sensogram of buffer alone was used as a double reference subtraction to factor for drift. Data analysis was carried out using Biacore T200 Evaluation Software, version 3.0, and Biacore Insight evaluation software. The 1:1 Langmuir binding model was used to calculate the association (ka), dissociation (kd) rate constants, and equilibrium dissociation constant (KD).

aMinoC22 sdAb = test: SPR of related small molecules against aMinoC22; format: binding, alpaca; settings: molecules closely related to minocycline
Method: as §1

[4] = target: anti-minocycline single-domain antibody clone 1 (aMinoC1 sdAb) (alpaca)
[5] = target: anti-minocycline single-domain antibody clone 1 (aMinoC1 sdAb) (alpaca); remark: listed apart in the source
[6] = target: anti-minocycline single-domain antibody clone 1 (aMinoC1 sdAb) (alpaca); remark: listed apart in the source
[7] = target: T1, GWARA CX7C peptide-muIgG2a-Fc fusion; test: ELISA; settings: chain shown with the change
T1 chain: ACPGWARAFC

minocycline = test: SPR
[8] = target: T2, HWAQA CX7C peptide-muIgG2a-Fc fusion (disulfide 1-9 (inferred); also: fused to muIgG2a Fc, end not given here); test: SPR
T2 chain: CPHWAQAFC

[9] = target: T3, GWARA CX7C peptide-muIgG2a-Fc fusion (disulfide 2-10 (inferred); also: fused to muIgG2a Fc, end not given here); test: SPR
T3 chain: ACPGWARAFC

[10] = target: T4, QWAMM CX7C peptide-muIgG2a-Fc fusion (disulfide 1-9 (inferred); also: fused to muIgG2a Fc, end not given here); test: SPR
T4 chain: CPQWAMMFC

[11] = target: T5, PWAYS CX7C peptide-muIgG2a-Fc fusion (disulfide 1-9 (inferred); also: fused to muIgG2a Fc, end not given here); test: SPR
T5 chain: CPPWAYSFC

ratio to parent [7]: 0.18 | ratio to parent (minocycline): 1.15
B1: anti-minocycline single-domain antibody clone 1 (aMinoC1 sdAb) R64A (protein)
chain: QVQLESGGGLVQPGSSLRLSCAASGRTFSSYNIGWFRQAPKEREFVAAISWSGAATYYADSVKGRFTISRDNAKNTVYLQMNSLKPEDTAVYSCAAGRGWGTEAILDYWGQGTQVSSA

ratio to parent [7]: 0.17 | ratio to parent (minocycline): 0.88
B2: anti-minocycline single-domain antibody clone 1 (aMinoC1 sdAb) R108A (protein)
chain: QVQLESGGGLVQPGSSLRLSCAASGRTFSSYNIGWFRQAPKEREFVAAISWSGARTYYADSVKGRFTISRDNAKNTVYLQMNSLKPEDTAVYSCAAGAGWGTEAILDYWGQGTQVSSA

ratio to parent [7]: 0.12 | ratio to parent (minocycline): 0.77
B3: anti-minocycline single-domain antibody clone 1 (aMinoC1 sdAb) A63S (protein)
chain: QVQLESGGGLVQPGSSLRLSCAASGRTFSSYNIGWFRQAPKEREFVAAISWSGSRTYYADSVKGRFTISRDNAKNTVYLQMNSLKPEDTAVYSCAAGRGWGTEAILDYWGQGTQVSSA

ratio to parent [7]: 0.17 | ratio to parent (minocycline): 1.28
B5: anti-minocycline single-domain antibody clone 1 (aMinoC1 sdAb) R28A (protein)
chain: QVQLESGGGLVQPGSSLRLSCAASGATFSSYNIGWFRQAPKEREFVAAISWSGARTYYADSVKGRFTISRDNAKNTVYLQMNSLKPEDTAVYSCAAGRGWGTEAILDYWGQGTQVSSA

ratio to parent [7]: 0.23 | ratio to parent (minocycline): 1.7
B6: anti-minocycline single-domain antibody clone 1 (aMinoC1 sdAb) G40A (protein)
chain: QVQLESGGGLVQPGSSLRLSCAASGRTFSSYNIAWFRQAPKEREFVAAISWSGARTYYADSVKGRFTISRDNAKNTVYLQMNSLKPEDTAVYSCAAGRGWGTEAILDYWGQGTQVSSA

ratio to parent [7]: 0.15 | ratio to parent (minocycline): 0.97
B7: anti-minocycline single-domain antibody clone 1 (aMinoC1 sdAb) S35A (protein)
chain: QVQLESGGGLVQPGSSLRLSCAASGRTFASYNIGWFRQAPKEREFVAAISWSGARTYYADSVKGRFTISRDNAKNTVYLQMNSLKPEDTAVYSCAAGRGWGTEAILDYWGQGTQVSSA

ratio to parent [7]: 0.25 | ratio to parent (minocycline): 1.06
B8: anti-minocycline single-domain antibody clone 1 (aMinoC1 sdAb) W58A (protein)
chain: QVQLESGGGLVQPGSSLRLSCAASGRTFSSYNIGWFRQAPKEREFVAAISASGARTYYADSVKGRFTISRDNAKNTVYLQMNSLKPEDTAVYSCAAGRGWGTEAILDYWGQGTQVSSA

The next lines start with the molecule.

Molecule: CN(Cc1cnc2nc(N)nc(N)c2n1)c1ccc(C(=O)N[C@@H](CCC(=O)O)C(=O)O)cc1 [methotrexate]
Kd (sdAbs): 29 to 515 nM | effect of other small molecules on MinoCAR cytotoxicity [1]: not affected

Molecule: Nc1c(Cl)c(Cl)nc(C(=O)O)c1Cl [picloram]
Kd (sdAbs): 3000 to 354000 nM

Molecule: PWAYS CX7C peptide-muIgG2a-Fc fusion
Kd [2]: 283 nM

Molecule: QWAMM CX7C peptide-muIgG2a-Fc fusion
Kd [2]: 209 nM

Molecule: auxin
Kd (sdAbs): 500 to 20000 nM

Molecule: Cn1c(=O)c2c(ncn2C)n(C)c1=O [caffeine]
effect of other small molecules on MinoCAR cytotoxicity [1]: not affected | peptide-muIgG2a Fc binding to membrane-bound aMinoC1 in presence of small molecule [3]: no peptide-binding inhibition; also recorded: did not result in a decrease in peptide binding

Molecule: CC(=O)OC[C@]12[C@H](O)C(=O)C(C)=C[C@H]1O[C@@H]1[C@H](O)C[C@@]2(C)[C@]12CO2 [15-acetyl-deoxynivalenol]
Kd (sdAbs): 5000 to 215000 nM

Molecule: C[C@H]1c2cccc(O)c2C(=O)C2=C(O)[C@]3(O)C(=O)C(C(N)=O)=C(O)[C@@H](N(C)C)[C@@H]3[C@@H](O)[C@@H]21 [doxycycline]
binding to aMinoC1 (SPR) (aMinoC1 sdAb): Neither sdAb showed an interaction; also recorded: lack of binding; also recorded: without cross-reactivity | GWARA-Fc dissociation from immobilized aMinoC1 on small-molecule injection (aMinoC1-peptide complex): No enhanced dissociation | peptide-Fc (HWAQA, PWAYS and QWAMM) dissociation from immobilised aMinoC1 on small-molecule injection (aMinoC1-peptide complex): No enhanced dissociation | binding to aMinoC22 (SPR) (aMinoC22 sdAb): Neither sdAb showed an interaction; also recorded: lack of binding | effect of other small molecules on MinoCAR cytotoxicity [1]: not affected

Molecule: HWAQA CX7C peptide-muIgG2a-Fc fusion
Kd [2]: 328 nM

Molecule: O=C(Nc1ccc(Cl)cc1)Nc1ccc(Cl)c(Cl)c1 [triclocarbon]
Kd (sdAbs): 0.98 to 1.37 nM

Molecule: GWARA CX7C peptide-muIgG2a-Fc fusion
IFN-y release by MinoUniCAR PBMCs (aMinoC1-CD8stk-CD28TM-CD28-41BBz) with the soluble aEGFR sdAb-GWARA adaptor, 0 uM against 10 uM minocycline [4]: 1570 pg/mL | Kd [2]: 111 nM | IFN-γ secretion by PBMCs transduced with the aMinoC1/GWARA-MyD88/CD40 module against the SG3S-peptide negative control, no minocycline; tuned down about 2-fold by increasing minocycline [5]: 520 pg/mL | IL12 secreted by T cells that co-express GWARA-flexi-IL12 and aMinoC1-KDEL without minocycline (retention); released up to 150 pg/mL on day 2 and 2.2 ug/mL on day 7 with minocycline up to 2.5 uM [6]: 450 pg/mL

B4: anti-minocycline single-domain antibody clone 1 (aMinoC1 sdAb) (VHH)
VHH: QVQLESGGGLVQPGSSLRLSCAASGRTFSSYNIGWFRQAPKEREFVAAISWSGARTYYADSVKGRFTISRDNAKNTVYLQMNSLKPEDTAVYSCAAGRGWGTEAILDYWGQGTQVSSA
koff [8]: 0.0058 s⁻¹ | koff [9]: 0.017 s⁻¹ | koff [10]: 0.0043 s⁻¹ | koff [11]: 0.0056 s⁻¹
